Assay results: patent publication US12359199B2, “Regulation of gene expression via aptamer-mediated control of self-cleaving ribozymes” (MEIRAGTX UK II LIMITED, priority 2016, dated 2025)

Legend:
Type in all cases: cell-based
[1] = system: GFP expression in HEK 293 cells; assay: GFP fluorescence intensity of transfected HEK 293 cells; conditions: ribozyme in 3′ UTR of EGFP; for fold reduction (suppression) of GFP expression / reduction (inhibition/suppression) of GFP expression: compared to pEGFP-C1 control
Source text: Plasmid constructs: oligonucleotides containing wild type or mutant twister ribozyme sequences, either from Nasonia Vitripennis (wasp) or from environmental samples, flanked by BsrGI and MfeI sites, were synthesized (IDT). The synthesized oligonucleotides (“oligos”) were digested with BsrGI and MfeI and cloned into pEGFP-C1 (Clontech) digested with the compatible restriction enzymes. The sequences of the constructed vectors were verified by DNA sequencing (Genewiz).
Transfection and measurement of GFP fluorescence: 3.5×10^4 HEK 293 cells were plated in a 96-well flat bottom plate the day before transfection. Plasmid DNA (500 ng) was added to a tube or a 96-well U-bottom plate. Separately, TransIT-293 reagent (Mirus; 1.4 μl) was added to 50 μl Opti-mem I media (Life Technologies), and allowed to sit for 5 minutes at room temperature (“RT”). Then, 50 μl of this diluted transfection reagent was added to the DNA, mixed, and incubated at RT for 20 min. Finally, 7 μl of this solution was added to a well of cells in a 96-well plate. […] GFP fluorescence intensity was measured by Tecan plate reader, using Excitation wavelength at 484 nm, Emission wavelength at 510 nm and Excitation bandwidth at 5 nm. The GFP fluorescence intensity was expressed as the value generated by GFP constructs subtracted by the value generated by LacZ construct.
Measurement of GFP fluorescence intensity was performed as described in Example 1.

[2] = system: firefly luciferase expression in HEK 293 cells; assay: Firefly luciferase assay of transfected HEK 293 cells treated with or without guanine or guanosine; conditions: riboswitch and linker2A downstream of start codon, guanine vs untreated control
Experimental: Firefly luciferase assay of cultured cells: 24 hours after media change, plates were removed from the incubator, equilibrated to RT for several minutes on a lab bench, and then aspirated. Glo-lysis buffer (Promega, 100 μL, RT) was added, and the plates allowed to remain at RT for at least 5 minutes. The well contents were mixed by 50 μL trituration, and 20 μL of each sample was mixed with 20 μL of bright-glo reagent (Promega) that had been diluted to 10% in glo-lysis buffer. 96 wells were spaced on an opaque white 384-well plate. Following a 5-minute incubation at RT, luminescence was measured using a Tecan machine with 500 mSec read time. The luciferase activity was expressed as mean relative light unit (RLU)±S.D. […]
Transfection and aptamer ligand treatment: HEK 293 cells were transfected as described in Example 1. Four hours after transfection, the media was aspirated, and new media with or without 500 μM guanine or 1 mM guanosine (Sigma) was added. Luciferase assay was performed 20 to 24 hours after guanine or guanosine treatment as described in Example 2. The reduction fold was expressed as the quotient of luciferase activity obtained in the absence of aptamer ligand divided by the value obtained in the presence of the aptamer ligand.
Oligos containing either a start codon or coding sequence for the first 10 amino acids of GFP and waspGua16 followed by a linker2A sequence were synthesized (IDT) and cloned into the pLuc vector using the Gibson cloning strategy and cloning kit (NEB). Transfection and luciferase assay of cultured cells were performed as described in Example 3. […]

[3] = system: firefly luciferase expression in HEK 293 cells; assay: Firefly luciferase assay of HEK 293 cells transfected with twister ribozyme constructs (no ligand); conditions: twister in 3′ UTR of firefly luciferase, compared to pFLuc control construct
Source text: Plasmid constructs: The following primers were used to generate constructs GFP_wasp_No Sac 0HP or GFP_wasp_No Sac 3HP: forward primers NoSac_Fwd (5′ […]) and NoSac3HP_Fwd (5′ […]) and reverse primer MfeI Rev (5′ […]). GFP_wasp-twister vector was used as template and the PCR-amplified DNA fragments were digested with BsrGI and MfeI and cloned into pEGFP-C1 digested with BsrGI and MfeI enzymes. The EGFP gene in pEGFP-C1 was replaced with the firefly luciferase gene to generate the pFLuc vector using Gibson cloning strategy and cloning kit (NEB). The same strategy was used to generate constructs Luc_wasp_No Sac 0HP and Luc_wasp_No Sac 3 HP by replacing the EGFP gene in constructs GFP_wasp_no Sac 0HP and GFP_wasp_no Sac 3HP with the firefly luciferase gene.
Firefly luciferase assay of cultured cells: 24 hours after media change, plates were removed from the incubator, equilibrated to RT for several minutes on a lab bench, and then aspirated. Glo-lysis buffer (Promega, 100 μL, RT) was added, and the plates allowed to remain at RT for at least 5 minutes. […] Following a 5-minute incubation at RT, luminescence was measured using a Tecan machine with 500 mSec read time. The luciferase activity was expressed as mean relative light unit (RLU)±S.D.

B1: GFP_wasp_no Sac 3HP: GFP wasp-twister construct with SacII site replaced by CGC creating 3 base pair stem (3HP) at P1 stem (nucleic acid)
DNA: GTGACCGCCGCCGGGATCACTCTCGGCATGGACGAGCTGTACAAGTAAACGCCTTGTAATGCGGCCGTGTAAATAATTTACACGTCGGTCTCAAGCCCGATAAACGCAGAGAGCAAGGCGGCCGCCATACCACATTTGTAGAGGTTTTACTTGCTTTAAAAAACCTCCCACACCTCCCCCTGAACCTGAAACATAAAATGAATGC
modifications: misc_feature 1..205 wasp_no Sac 3HP in pEGFP-C1
notes: GFP wasp-twister construct with SacII site replaced by CGC creating 3 base pair stem (3HP) at P1 stem
- fold reduction (suppression) of GFP expression [1]: 104 fold

B2: GFP_wasp_no Sac 0HP: GFP wasp-twister construct with SacII sequence at 5′ end of twister deleted (nucleic acid)
DNA: GTGACCGCCGCCGGGATCACTCTCGGCATGGACGAGCTGTACAAGTAAACTTGTAATGCGGCCGTGTAAATAATTTACACGTCGGTCTCAAGCCCGATAAACGCAGAGAGCAAGGCGGCCGCCATACCACATTTGTAGAGGTTTTACTTGCTTTAAAAAACCTCCCACACCTCCCCCTGAACCTGAAACATAAAATGAATGC
modifications: misc_feature 1..202 wasp_no Sac 0HP in pEGFP-C1
- fold reduction (suppression) of GFP expression [1]: 68 fold

B3: ATG_waspGua16: waspGua16 and linker2A inserted downstream of ATG and upstream of remaining luciferase coding sequence (nucleic acid)
DNA: ATGACGCCTTGTAATGCGGCATATAATCGCGTGGATATGGCACGCAAGTTTCTACCGGGCACCGTAAATGTCCGACTATTCGGTCTCAAGCCCGATAAACGCAGAGAGCAAGGCGAAGGCGGATCTTCAGGTAGTGGCGAGGGCAGAGGAAGTCTTCTAACATGCGGTGACGTGGAGGAGAATCCCGGCCCCGAAGACGCCAAAAACATAAAGAAAGGCCCGGCGCCA
modifications: misc_feature 1..228 ATG_wtWaspGua16 in pLuc
- reduction of luciferase gene expression in the presence of guanine [2]: 68%

B4: Luc_wasp_No Sac 3HP: Firefly luciferase construct with wasp twister with 3 bp stem (3HP) at P1 stem in 3′ UTR (nucleic acid)
DNA: TCAGAGAGATCCTCATAAAGGCCAAGAAGGGCGGAAAGATCGCCGTGTAAACGCCTTGTAATGCGGCCGTGTAAATAATTTACACGTCGGTCTCAAGCCCGATAAACGCAGAGAGCAAGGCGGCCGCCATACCACATTTGTAGAGGTTTTACTTGCTTTAAAAAACCTCCCACACCTCCCCCTGAACCTGAAACATAAAATGAATGC
modifications: misc_feature 1..207 wasp_No Sac 3HP in pLuc
notes: Firefly luciferase construct with wasp twister with 3 bp stem (3HP) at P1 stem in 3′ UTR
- fold reduction of luciferase activity [3]: 254 fold

B5: 10aa_waspGua16: waspGua16 and linker2A inserted downstream of the coding sequence for the first 10 amino acids of GFP, in pLuc (nucleic acid)
DNA: ATGGTGAGCAAGGGCGAGGAGCTGTTCACCACGCCTTGTAATGCGGCATATAATCGCGTGGATATGGCACGCAAGTTTCTACCGGGCACCGTAAATGTCCGACTATTCGGTCTCAAGCCCGATAAACGCAGAGAGCAAGGCGAAGGCGGATCTTCAGGTAGTGGCGAGGGCAGAGGAAGTCTTCTAACATGCGGTGACGTGGAGGAGAATCCCGGCCCCGAAGACGCCAAAAACATAAAGAAAGGCCCGGCGCCA
modifications: misc_feature 1..255 10aa_wtWaspGua16 in pLuc
- reduction of luciferase gene expression in the presence of guanine [2]: 68%

B6: Luc_wasp_No Sac 0HP: Firefly luciferase construct with wasp twister without SacII sequence in 3′ UTR (nucleic acid)
DNA: TCAGAGAGATCCTCATAAAGGCCAAGAAGGGCGGAAAGATCGCCGTGTAAACTTGTAATGCGGCCGTGTAAATAATTTACACGTCGGTCTCAAGCCCGATAAACGCAGAGAGCAAGGCGGCCGCCATACCACATTTGTAGAGGTTTTACTTGCTTTAAAAAACCTCCCACACCTCCCCCTGAACCTGAAACATAAAATGAATG
modifications: misc_feature 1..203 wasp_No Sac 0HP in pLuc
- fold reduction of luciferase activity [3]: 101 fold

B7: es-twister: Twister ribozyme sequence from environmental sample cloned into the 3′ UTR in pEGFP-C1 vector (nucleic acid)
DNA: GTGACCGCCGCCGGGATCACTCTCGGCATGGACGAGCTGTACAAGTAAACCGCGGCAATAAAGCGGTTACAAGCCCGCAAAAATAGCAGAGTAATGTCGCGATAGCGCGGCATTAATGCAGCTTTATTGGCGGCCGCCATACCACATTTGTAGAGGTTTTACTTGCTTTAAAAAACCTCCCACACCTCCCCCTGAACCTGAAACATAAAATGAATGC
modifications: misc_feature 1..217 es-twister in pEGFPC1
- effect on GFP expression (in words) [1]: significantly reduced target gene expression
- reduction (inhibition/suppression) of GFP expression [1]: about 50%

B8: wasp-twister: Twister ribozyme sequence from N. vitripennis cloned into the 3′ UTR in pEGFP-C1 vector (nucleic acid)
DNA: GTGACCGCCGCCGGGATCACTCTCGGCATGGACGAGCTGTACAAGTAAACCGCGGCTTGTAATGCGGCCGTGTAAATAATTTACACGTCGGTCTCAAGCCCGATAAACGCAGAGAGCAAGGCGGCCGCCATACCACATTTGTAGAGGTTTTACTTGCTTTAAAAAACCTCCCACACCTCCCCCTGAACCTGAAACATAAAATGAATGC
modifications: misc_feature 1..208 wasp-twister in pEGFP-C1
- effect on GFP expression (in words) [1]: reduced expression of GFP
- fold reduction (suppression) of GFP expression [1]: 36 fold
- reduction (inhibition/suppression) of GFP expression [1]: 97%
- fold reduction (suppression) of GFP expression ([1]; listed as GFP-twister): 37 fold
- fold reduction (suppression) of GFP expression ([1]; listed as Wasp-twister): ~36 fold
- reduction (inhibition/suppression) of GFP expression ([1]; listed as Wasp-twister): approximately 97%
- fold reduction (suppression) of GFP expression ([1]; listed as wild type twister ribozyme): 44 fold

B9: wasp-twister Mutant: Cleavage-incapable mutant wasp twister, A6 replaced with G, in 3′ UTR of pEGFP-C1 (nucleic acid)
DNA: GTGACCGCCGCCGGGATCACTCTCGGCATGGACGAGCTGTACAAGTAAACCGCGGCTTGTGATGCGGCCGTGTAAATAATTTACACGTCGGTCTCAAGCCCGATAAACGCAGAGAGCAAGGCGGCCGCCATACCACATTTGTAGAGGTTTTACTTGCTTTAAAAAACCTCCCACACCTCCCCCTGAACCTGAAACATAAAATGAATGC
modifications: misc_feature 1..208 wasp-twister-mut in pEGFP-C1
notes: Cleavage-incapable mutant wasp twister, A6 replaced with G, in 3′ UTR of pEGFP-C1
- effect on GFP expression (in words) [1]: did not cause a reduction in GFP expression
- effect on GFP expression (in words) ([1]; listed as A6G mutation): completely abolished the suppression in GFP expression
